Test results taken from paper PMC10916992, “APOE Christchurch‐mimetic therapeutic antibody reduces APOE‐mediated toxicity and tau phosphorylation” (Alzheimer's & Dementia, 2023).

Columns and labels:
[1] = molecular target: Recombinant His-tagged full-length human ApoE4 (human, UniProt P02649 19-317, Cys112 → Arg112); assay: SPR
[2] = molecular target: T1, Recombinant His-tagged full-length human ApoE4 (Homo sapiens, ApoE4 (C112R mature), UniProt P02649, Cys112 → Arg112); assay: SPR; Biacore 3000, PBS; the Fab injected at various concentrations (methods; the legend says ApoE4 over immobilised Fab); contact 120 s, dissociation 240 s, 30 μL/min; KD from ka and kd; conditions: both partners purified
T1 construct: Apolipoprotein E, human, isoform E4; their rows are written on this molecule; source: E. coli-derived, His-tagged, fee-for-service by Innovagen
Target sequence in this assay (P02649 other isoform, or with tags, fused parts or gaps Cys112 → Arg112 | Cys112 → Arg112): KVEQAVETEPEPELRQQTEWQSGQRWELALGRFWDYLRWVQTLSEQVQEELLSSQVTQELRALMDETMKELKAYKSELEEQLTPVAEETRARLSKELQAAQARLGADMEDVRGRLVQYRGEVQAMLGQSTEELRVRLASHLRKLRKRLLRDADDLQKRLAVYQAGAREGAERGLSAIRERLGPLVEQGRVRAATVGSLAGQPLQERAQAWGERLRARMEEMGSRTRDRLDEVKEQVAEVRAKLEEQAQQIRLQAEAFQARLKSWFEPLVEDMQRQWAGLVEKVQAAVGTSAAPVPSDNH

[3] = molecular target: T1, Recombinant His-tagged full-length …; assay: BLI; OCTET RED 96, 25°C; 7C11ch.IgG1 loaded on anti-human IgG Fc (AHC) sensors at 20 μg/mL; ApoE4 in solution (200 nM), PBS + 0.1% BSA; conditions: both partners purified
[4] = molecular target: T2, ApoE3 in post mortem human brain tissue (APOEε3/ε3 PSEN1 E280A carrier) (Homo sapiens, ApoE3, UniProt P02649); assay: immunostaining of cells or tissue; formalin-fixed paraffin-embedded middle temporal gyrus sections of PSEN1 E280A carriers of different APOE genotypes; 1H4 0.012 μg/μL, 7C11 0.041 μg/μL, 19G 0.072 μg/μL overnight 4°C; HRP detection; not quantified; conditions: one partner purified
T2 construct: Apolipoprotein E, human, isoform E3; source: endogenous, post mortem human middle temporal gyrus, formalin-fixed paraffin-embedded sections
T2 sequence (P02649 19-317, stated change not applied): as the sequence (P02649 other isoform, or with tags, fused parts or gaps Cys112 → Arg112 | Cys112 → Arg112) above, with R112C counted along it

[5] = molecular target: T3, Recombinant His-tagged full-length human ApoE3 (Homo sapiens, ApoE3, UniProt P02649); assay: ELISA; ApoE variants or peptides coated (0.0025 μg/μL in TBS with 2 mM CaCl2, 16 h 4°C); serial dilutions of purified monoclonal antibodies (0.01 to 6.7 nM in the isoform panel), 2 h RT or 16 h 4°C; HRP secondary; conditions: both partners purified
T3 construct: Apolipoprotein E, human, isoform E3 (C112, R158); ELISA used the Innovagen protein; their rows are written on this molecule; A recombinant 'full-length' ApoE from E. coli is probably the mature protein without signal peptide (surmise); also called ApoE3 FL; WT ApoE; source: E. coli-derived, His-tagged, fee-for-service by Innovagen
Target sequence in this assay (P02649 19-317): as the sequence (P02649 other isoform, or with tags, fused parts or gaps Cys112 → Arg112 | Cys112 → Arg112) above, with R112C counted along it

[6] = molecular target: T4, Recombinant His-tagged full-length human ApoE2 (Homo sapiens, ApoE2 (R158C mature), UniProt P02649, Arg158 → Cys158); assay: BLI; OCTET RED 96, 25°C; ApoE variants immobilised on anti-penta-His (HS1K) sensors; 7C11.mAb in solution, titrated; conditions: both partners purified
T4 construct: Apolipoprotein E, human, isoform E2; its rows are written on this molecule; source: E. coli-derived, His-tagged, fee-for-service by Innovagen
Target sequence in this assay (P02649 other isoform, or with tags, fused parts or gaps Arg158 → Cys158 | Arg158 → Cys158): as the sequence (P02649 other isoform, or with tags, fused parts or gaps Cys112 → Arg112 | Cys112 → Arg112) above, with R112C, R158C counted along it

[7] = molecular target: T3, Recombinant His-tagged full-length …; assay: as above; conditions: both partners purified
Target sequence in this assay (P02649 19-317): as the sequence (P02649 other isoform, or with tags, fused parts or gaps Cys112 → Arg112 | Cys112 → Arg112) above, with R112C counted along it

[8] = molecular target: T1, Recombinant His-tagged full-length …; assay: as above; conditions: both partners purified
Target sequence in this assay (P02649 other isoform, or with tags, fused parts or gaps Cys112 → Arg112 | Cys112 → Arg112): as the sequence (P02649 other isoform, or with tags, fused parts or gaps Cys112 → Arg112 | Cys112 → Arg112) above

[9] = molecular target: T4, Recombinant His-tagged full-length …; assay: BLI; OCTET RED 96, 25°C; msIgG1 7C11.mAb loaded on anti-mouse Fc (AMC) sensors at 20 μg/mL; ApoE variant in solution (200 nM), PBS + 0.1% BSA; conditions: both partners purified
[10] = molecular target: T3, Recombinant His-tagged full-length …; assay: as above; conditions: both partners purified
[11] = molecular target: T1, Recombinant His-tagged full-length …; assay: as above; conditions: both partners purified
[12] = molecular target: T3, Recombinant His-tagged full-length …; assay: ELISA; ApoE peptide or full-length protein coated on the plate; serial dilutions of hybridoma cell supernatants; TBS with 2 mM CaCl2, 3% BSA block; conditions: one partner purified
Target sequence in this assay (P02649 19-317): as the sequence (P02649 other isoform, or with tags, fused parts or gaps Cys112 → Arg112 | Cys112 → Arg112) above, with R112C counted along it

Sequence of Recombinant His-tagged full-length human ApoE4 (human, UniProt P02649 19-317, Cys112 → Arg112) (P02649 other isoform, or with tags, fused parts or gaps Cys112 → Arg112): as the sequence (P02649 other isoform, or with tags, fused parts or gaps Cys112 → Arg112 | Cys112 → Arg112) above

B1: 7C11-Fab (recombinant Fab fragment of the 7C11.chIgG1 antibody) (Fab, V domains shown)
VH: EVKLVESGGGLVQPGGSLKLSCAASGFTFSRYTMSWVRQTPEKRLEWVAKIRNVGGITYYPDTVKGRFTISRDNAKNTLYLQMSSLKSEDTAMYYCARHYYGSEDYFDYWGQGTTLTVSS
VL: DNVLTQSPASLAVSLGQRATISCKASQSVDYDGDSYMNWYQQKPGQPPKVFIYAASNLESGIPARFSGSGSGTNFTLNIHPVEEEDAATYYCQQSNEDPWTFGGGTKLEIK
notes: VH CDR-1 of 7C11; VH CDR-2 of 7C11; VH CDR-3 of 7C11; VL CDR-1 of 7C11; VL CDR-2 of 7C11; VL CDR-3 of 7C11; also called Fab-7C11; 7C11.IgGFab; source: recombinant, purified, fee-for-service by Creative BioStructure
Kd [1]: 25.1 nM | Kd [2]: ~10 nM

B2: 7C11.chIgG1 (chimeric mouse-human IgG1 7C11 antibody) (antibody, V domains shown)
VH: EVKLVESGGGLVQPGGSLKLSCAASGFTFSRYTMSWVRQTPEKRLEWVAKIRNVGGITYYPDTVKGRFTISRDNAKNTLYLQMSSLKSEDTAMYYCARHYYGSEDYFDYWGQGTTLTVSS
VL: DNVLTQSPASLAVSLGQRATISCKASQSVDYDGDSYMNWYQQKPGQPPKVFIYAASNLESGIPARFSGSGSGTNFTLNIHPVEEEDAATYYCQQSNEDPWTFGGGTKLEIK
notes: VH CDR-1 of 7C11; VH CDR-2 of 7C11; VH CDR-3 of 7C11; VL CDR-1 of 7C11; VL CDR-2 of 7C11; VL CDR-3 of 7C11; Human IgG1 constant regions; also called chimeric 7C11 antibody; 7C11 human chimeric antibody; source: human chimeric antibody produced as fee-for-service by Innovagen
Kd [3]: < 0.001 nM

B3: 1H4.mAb (mouse monoclonal anti-ApoE antibody) (antibody, V domains shown)
VH: EVKLVESGGGVVQPGGSLKLSCAASGFTFSSYTMSWVRQTPEKRLEWVAKIRNGGGITYYLDTLKGRFTISRDNAKNTLYLQMSSLKSEDTAIYFCARHYYGSEDYFDYWGQGTTLTVSS
VL: DNVLTQSPASLAVSLGQRATISCKASQSVDYDGDSYMNWYQQKPGQPPKVFIYAASNLESGIPARFSGSGSGTDFTLNIHPVEEEDAATYYCQQSNEDPWTFGGGTKLEIK
notes: VH CDR-1; VH CDR-2; VH CDR-3; VL CDR-1; VL CDR-2; VL CDR-3; Raised against the ApoE peptide; also called 1H4.Ab; source: hybridoma supernatant (1H4.Ab) and purified monoclonal antibody (1H4.mAb), fee-for-service by Innovagen
binding result [4]: binds | binding result [5]: binds

B4: 7C11.mAb (mouse monoclonal anti-ApoE antibody, msIgG1) (antibody, V domains shown)
VH: EVKLVESGGGLVQPGGSLKLSCAASGFTFSRYTMSWVRQTPEKRLEWVAKIRNVGGITYYPDTVKGRFTISRDNAKNTLYLQMSSLKSEDTAMYYCARHYYGSEDYFDYWGQGTTLTVSS
VL: DNVLTQSPASLAVSLGQRATISCKASQSVDYDGDSYMNWYQQKPGQPPKVFIYAASNLESGIPARFSGSGSGTNFTLNIHPVEEEDAATYYCQQSNEDPWTFGGGTKLEIK
notes: VH CDR-1; VH CDR-2; VH CDR-3; VL CDR-1; VL CDR-2; VL CDR-3; Mouse IgG1; also called 7C11.Ab; ms.7C11-Ab; source: hybridoma supernatant (7C11.Ab) and purified monoclonal antibody (7C11.mAb), fee-for-service by Innovagen
Kd [6]: 7.41 nM | Kd [7]: 16.8 nM | Kd [8]: 6.07 nM | Kd [9]: 28.1 nM | Kd [10]: 5.14 nM | Kd [11]: < 0.001 nM

B5: 25F.mAb (mouse monoclonal anti-ApoE3Ch antibody, clone 25F1-2) (antibody, V domains shown)
VH: EVQLQQSGAELVRPGALVKWSCKASGFNIKDYHIHWVKQRPEQGLDWIGWIDPEIDKTLYDPKFQGKARITADTSSNTAYLQLSSLTSEDTAVYYCARGTARASFDYWGQGTTLTVSS
VL: DIVLTQSPASLAVSLGQRATISCKASQSVDYDGDTYMNWYQQKPGQPPKLLIYTASNLESGIPARFSGSGSGTDFTLNIHPVEEVDAATYYCQQSNEDPWTFGGGTKLEIK
notes: VH CDR-1; VH CDR-2; VH CDR-3; VL CDR-1; VL CDR-2; VL CDR-3; Raised against the ApoECh peptide; also called 25F.Ab; source: hybridoma supernatant (25F.Ab) and purified monoclonal antibody (25F.mAb), fee-for-service by Innovagen
binding result [12]: binds
